Substitutions are numbered along the chain they refer to.
T1: GST-TA12015D (TaAP2.me2 AP2 domain) (Theileria annulata (strain Ankara, …, UniProt Q4UDT1))
T1 sequence: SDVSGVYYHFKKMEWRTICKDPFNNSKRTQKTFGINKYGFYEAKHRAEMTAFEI

T2: GST-TA16485D (TaAP2.me3 AP2 domain) (Theileria annulata (strain Ankara, …, UniProt Q4UIX2))
T2 sequence: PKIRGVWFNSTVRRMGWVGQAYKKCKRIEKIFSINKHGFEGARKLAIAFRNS

B1: Bio-GTGTAC (dsDNA)
DNA 1: AATATTATAATAGTCGTAGCCATCAATGTGTACACATGGTAATATAGATTTTCGTTTATATT
DNA 2: AATATAAACGAAAATCTATATTACCATGTGTACACATTGATGGCTACGACTATTATAATATT
B2: Bio-GTGTAC-MUT (dsDNA)
DNA 1: B1 DNA 1 with G28A, G30A, C33A, C35A
DNA 2: B1 DNA 2 with G28T, G30T, C33T, C35T
B3: Bio(A)CACAC(A)-MUT (dsDNA)
DNA 1: GATATAGAATTATGCAGAATAT
DNA 2: ATATTCTGCATAATTCTATATC
B4: Bio-TCTATA / C-box probe (dsDNA)
DNA 1: ATTGTTAATTCCCCATCCAGATCTATAAAA
DNA 2: TTTTATAGATCTGGATGGGGAATTAACAAT
B5: Bio-2x(A)CACAC(A) (dsDNA)
DNA 1: GATACACACTTATGCACACACA
DNA 2: TGTGTGTGCATAAGTGTGTATC

Assays:
Settings in all cases: protein: recombinant; tags: N-terminal GST (pGEX5x-2); label: 5' biotin on strand 1; blunt
[1] = biological target: GST-TA13515D (TaAP2.g AP2 domain) (Theileria annulata (strain Ankara, …, UniProt Q4UEK3)); assay: EMSA; LightShift chemiluminescent EMSA kit components plus 1 ul 50% glycerol and 1 ul 1% NP40, about 0.7 ug GST fusion protein, 20 fmol biotinylated probe; competitor preincubation on ice; 4% polyacrylamide gel, 100 V, 4 C; pH and salt of binding not stated (oligo annealing in 20 mM Tris-HCl pH 7.6, 50 mM NaCl)
[2] = biological target: GST-TA11145D (TaAP2.me1 AP2 domain) (Theileria annulata (strain Ankara, …, UniProt Q4U8H9)); assay: as above
[3] = biological target: T1, GST-TA12015D (TaAP2.me2 AP2 domain); assay: EMSA; 0.6-1.6 ug protein; LightShift chemiluminescent EMSA kit components plus 1 ul 50% glycerol and 1 ul 1% NP40, about 0.7 ug GST fusion protein, 20 fmol biotinylated probe; competitor preincubation on ice; 4% polyacrylamide gel, 100 V, 4 C; pH and salt of binding not stated (oligo annealing in 20 mM Tris-HCl pH 7.6, 50 mM NaCl)
[4] = biological target: T2, GST-TA16485D (TaAP2.me3 AP2 domain); assay: EMSA; LightShift chemiluminescent EMSA kit components plus 1 ul 50% glycerol and 1 ul 1% NP40, about 0.7 ug GST fusion protein, 20 fmol biotinylated probe; competitor preincubation on ice; 4% polyacrylamide gel, 100 V, 4 C; pH and salt of binding not stated (oligo annealing in 20 mM Tris-HCl pH 7.6, 50 mM NaCl)

| Binder | binding result [1] | binding result [2] | other results |
| --- | --- | --- | --- |
| B1 | binds |  |  |
| B2 | no binding |  |  |
| B3 |  | no binding |  |
| B4 |  |  | binding result [3]: no binding; binding result [4]: binds |
| B5 |  | binds |  |

Reference: publication PMC4537280, “ApiAP2 Factors as Candidate Regulators of Stochastic Commitment to Merozoite Production in Theileria annulata”
